Measured values taken from patent publication US20230279131A1 (published 2023).
Values belong to the binder of their own block, whether it stands above or below them.

Key:
[1] = biological target: T1, human IL-2Rγ expressed on cells (human, UniProt P31785 23-369); assay: flow cytometry on NK-92 cells, antibody at 10 µg/ml; high end of the range, tied to 'H4H13841P' (taken as H4H13541P) by Table 9-2
T1 construct: whole, on cells; endogenous receptor on human cells; also called IL-2Rgamma; CD132
T1 sequence (looked up): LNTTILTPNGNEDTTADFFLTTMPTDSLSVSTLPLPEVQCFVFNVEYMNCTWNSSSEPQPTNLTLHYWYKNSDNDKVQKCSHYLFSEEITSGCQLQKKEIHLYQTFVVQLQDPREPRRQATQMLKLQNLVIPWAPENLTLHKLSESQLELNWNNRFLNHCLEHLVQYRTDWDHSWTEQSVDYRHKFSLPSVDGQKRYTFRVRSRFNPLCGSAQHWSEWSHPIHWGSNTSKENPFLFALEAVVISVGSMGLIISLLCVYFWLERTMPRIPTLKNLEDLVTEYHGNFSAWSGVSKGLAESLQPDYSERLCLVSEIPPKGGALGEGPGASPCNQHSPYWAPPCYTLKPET

[2] = biological target: T2, D1 domain of human IL-2Rγ extracellular domain expressed with a C-terminal myc-myc-hexahistidine tag (human); assay: SPR Biacore 4000, mAb captured on anti-hFc, 25°C
T2 construct: whole entry is the tagged construct
T2 chain: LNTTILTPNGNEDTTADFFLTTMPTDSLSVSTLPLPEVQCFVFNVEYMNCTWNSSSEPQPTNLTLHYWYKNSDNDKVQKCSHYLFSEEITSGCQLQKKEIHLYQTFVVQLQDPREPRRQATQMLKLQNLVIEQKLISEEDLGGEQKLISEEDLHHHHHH
Method: (§1) Equilibrium dissociation constants (KD values) for IL-2Rγ binding to purified anti-IL2Rγ monoclonal antibodies were determined using a Biacore 4000 instrument equipped with a real-time surface plasmon resonance biosensor. All binding studies were performed in 10 mM HEPES, 150 mM NaCl, 3 mM EDTA, and 0.05% v/v Surfactant Tween-20, pH 7.4 (HBS-ET) running buffer at 25° C. and 37° C. The Biacore sensor surface was first derivatized by amine coupling with a monoclonal mouse anti-human Fc antibody (GE, #BR-1008-39) to capture anti-IL2Rγ monoclonal antibodies.

[3] = biological target: T2, D1 domain of human IL-2Rγ extracellular …; assay: SPR Biacore 4000, mAb captured on anti-hFc, 37°C
Method: as §1

[4] = biological target: T3, Human IL2Rγ extracellular domain expressed with a C-terminal myc-myc-hexahistidine tag (human); assay: SPR Biacore 4000, mAb captured by anti-hFc, HBS-ET, 25C
T3 construct: also called hIL-2Rg-MMH; hIL-2RG-MMH
T3 chain: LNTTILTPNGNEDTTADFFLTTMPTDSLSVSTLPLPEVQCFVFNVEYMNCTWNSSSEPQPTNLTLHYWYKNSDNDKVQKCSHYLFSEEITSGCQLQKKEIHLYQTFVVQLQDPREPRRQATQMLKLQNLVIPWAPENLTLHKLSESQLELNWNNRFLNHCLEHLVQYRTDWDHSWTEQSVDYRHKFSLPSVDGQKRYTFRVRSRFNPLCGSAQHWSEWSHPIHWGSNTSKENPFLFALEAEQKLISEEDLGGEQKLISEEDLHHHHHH
Method: as §1

[5] = biological target: T3, Human IL2Rγ extracellular domain …; assay: SPR Biacore 4000, mAb captured by anti-hFc, HBS-ET, 37C
Method: as §1

[6] = biological target: T1, human IL-2Rγ expressed on cells; assay: flow cytometry on NK-92 cells, antibody at 10 µg/ml; high end of the range, tied to H4H12889P by Table 9-1
[7] = biological target: T1, human IL-2Rγ expressed on cells; assay: flow cytometry on Jurkat cells, antibody at 10 µg/ml; high end of the range, tied to H4H12889P by Table 9-1
[8] = biological target: T4, D2 domain of human IL2Rγ extracellular domain expressed with a C-terminal myc-myc-hexahistidine tag (human); assay: SPR Biacore 4000, mAb captured on anti-hFc, 25°C
T4 construct: whole entry is the tagged construct
T4 chain: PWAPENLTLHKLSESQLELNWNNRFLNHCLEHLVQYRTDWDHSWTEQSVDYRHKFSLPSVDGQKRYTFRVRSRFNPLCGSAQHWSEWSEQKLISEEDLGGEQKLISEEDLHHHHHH
Method: as §1

[9] = biological target: T4, D2 domain of human IL2Rγ extracellular …; assay: SPR Biacore 4000, mAb captured on anti-hFc, 37°C
Method: as §1

[10] = biological target: T1, human IL-2Rγ expressed on cells; assay: flow cytometry on NK-92 cells, antibody at 10 µg/ml; low end of the range, tied to H4H12859P by Table 9-1
[11] = biological target: T1, human IL-2Rγ expressed on cells; assay: flow cytometry on NK-92 cells, antibody at 10 µg/ml; low end of the range, tied to H4H13538P by Table 9-2

B1: H4H13541P (antibody, human IgG4 S228P, kappa, V domains shown)
VH: EVQLVESGGGVVRPGGSLRLSCAASGFIFDDYDMSWVRQPPGRGLEWVSGIDWFGGTRGYADSMKGRFTISRDNAKNSLYLQMNSLRVEDTAFYYCARGGAIVGAVTPFDYWGQGTLVTVSS
VL: DIQMTQSPSSLSASVGNRVTLSCRASQSINTYLSWYQQRPGKAPKLLIYAASSLQSGVPSRFSGSGAGTDFTLTISSLQPEDFATYYCQQSYSAPLTFGGGTKVEIKR
notes: anti-IL2Rγ human antibody, human IgG4 Fc; also called H4H13841P
binding ratio (sample MFI over unstained MFI) [1]: 37 ratio

B3: H4H12926P2 (antibody, human IgG4 S228P, kappa, V domains shown)
VH: QVQLQQSGPGLVKPSQTLSLTCAISGDSVSSNIAAWNWIRLSPSRGLEWLGRTFFRSTWFYDYSLSVKGRITINPDTSKNQFSLHLNSVTPEDAAVYYCARTGRRWSLDYWGQGTLVTVSS
VL: not shown
notes: anti-IL2Rgamma monoclonal antibody expressed with human IgG4 Fc
100 nM Ag Bound [4]: 13 RU
100 nM Ag Bound [5]: 2 RU

B5: H4H12927P2 (antibody, human IgG4 S228P, kappa, V domains shown)
VH: EVQLVESGGGVVRPGGSLRLSCATSGFTFDDYGMSWVRQVPGKGLEWVSSVNRNGGTTDYADSVKGRFTISRDNAKRSLFLQMNSLRAEDTALYHCATGELFFDYWGQGTLVTVSS
VL: not shown
notes: anti-IL2Rγ mAb expressed with human IgG4 Fc
100 nM Ag Bound [8]: 14 RU
100 nM Ag Bound [9]: 2 RU

B9: H4H12874P (antibody, human IgG4 S228P, kappa, V domains shown)
VH: QVQLVESGGGVVQPGRSLRLSCAASGFNFRNFGMHWVRQAPGKGLEWVAGILYDGSSKYYADSVKDRFTISRDNSKNTLFLQMNSLRAEDTAMYYCAKEEDTAMVPFDSWGPGTLVTVSS
VL: DIQLTQSPSFLSASVGDRVTITCWASQGISSYLAWYQQKPGKAPTLLIYAASTLQSGVPSRFSGSGSGTEFTLTISSLQPEDFASYYCQQLKSYPLTFGGGTKVEIKR
notes: as for B5
100 nM Ag Bound [8]: 10 RU
100 nM Ag Bound [9]: 2 RU

Now from value to binder:

100 nM Ag Bound [2]: 8 RU
100 nM Ag Bound [3]: 2 RU
B2: H4H12926P2 (antibody, human IgG4 S228P, kappa, V domains shown)
VH: QVQLQQSGPGLVKPSQTLSLTCAISGDSVSSNIAAWNWIRLSPSRGLEWLGRTFFRSTWFYDYSLSVKGRITINPDTSKNQFSLHLNSVTPEDAAVYYCARTGRRWSLDYWGQGTLVTVSS
VL: not shown
notes: as for B5

binding ratio (sample MFI over unstained MFI) [6]: 94 ratio
binding ratio (sample MFI over unstained MFI) [7]: 19 ratio
B4: H4H12889P (antibody, human IgG4 S228P, kappa, V domains shown)
VH: EVQLVESGGGLVQPGGSLRLSCAASGFIFSSYEMHWVRQAPGKGLEWISYISSSGTTIYYADSVKGRFTISRDNAKNSLYLHMNSLRAEDTAVYYCTRARITGTFDVFDIWGQGTMVTVSS
VL: DIQMTQSPSSLSASVGDRVTITCRASQSISSYLNWYQQKPGKAPKLLIFAASNLQSGVPSRFSGSRSGTDFTLTISSLQPEDFATYYCQQNYNIPYTFGQGTKLEIKR
notes: anti-IL2Rγ human antibody, human IgG4 Fc; also called REGN7257

100 nM Ag Bound [4]: 18 RU
100 nM Ag Bound [5]: 5 RU
B6: H4H12927P2 (antibody, human IgG4 S228P, kappa, V domains shown)
VH: EVQLVESGGGVVRPGGSLRLSCATSGFTFDDYGMSWVRQVPGKGLEWVSSVNRNGGTTDYADSVKGRFTISRDNAKRSLFLQMNSLRAEDTALYHCATGELFFDYWGQGTLVTVSS
VL: not shown
notes: as for B3

binding ratio (sample MFI over unstained MFI) [10]: 1 ratio
B7: H4H12859P (antibody, human IgG4 S228P, kappa, V domains shown)
VH: QVQLVQSGAEVKKPGASVRVSCKASGYTFTDYDIHWVRQAPGHGLEWMGWINPNSGGTNYAQKFQGRVTMTRDTSISTVYMDLSRLRSDDTAVYYCARADYSSSYYYYGMDVWGQGTTVTVSS
VL: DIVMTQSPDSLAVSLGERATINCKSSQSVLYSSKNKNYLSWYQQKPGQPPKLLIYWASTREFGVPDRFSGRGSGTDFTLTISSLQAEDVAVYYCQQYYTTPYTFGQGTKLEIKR
notes: anti-IL2Rγ human antibody, human IgG4 Fc

binding ratio (sample MFI over unstained MFI) [11]: 1 ratio
B8: H4H13538P (antibody, human IgG4 S228P, kappa, V domains shown)
VH: EVQLVESGGGLVQPGGSLGLSCAASGFTFSNYAMSWVRQAPGKGLEWVSAVSGGGGGTYYADSVKGRFTISRDNSKNTVLLQMNSLRAEDTAVYYCARGRTGGLDYWGPGTLVTVSS
VL: DVVMTQSPLSLPVIFGQPASISCRSSQSLVDSDGNTYLNWLQQRPGQSPRRLIYEVSNRDSGVPDRFSGSGSGTDFTLTISRVEAEDVGIYYCMQGTRWPPTFGGGTKVEIKR
notes: as for B7
